The record followed here is patent US20260297187 (published 2026).

The target in test [1] is CEACAM1 (cell surface) (human). The test can be described thus: FACS, HepG2. Background: A flow cytometer gives signals particle by particle.
Test [2] concerns the target T1, CEACAM1-his (human).
T1 chain: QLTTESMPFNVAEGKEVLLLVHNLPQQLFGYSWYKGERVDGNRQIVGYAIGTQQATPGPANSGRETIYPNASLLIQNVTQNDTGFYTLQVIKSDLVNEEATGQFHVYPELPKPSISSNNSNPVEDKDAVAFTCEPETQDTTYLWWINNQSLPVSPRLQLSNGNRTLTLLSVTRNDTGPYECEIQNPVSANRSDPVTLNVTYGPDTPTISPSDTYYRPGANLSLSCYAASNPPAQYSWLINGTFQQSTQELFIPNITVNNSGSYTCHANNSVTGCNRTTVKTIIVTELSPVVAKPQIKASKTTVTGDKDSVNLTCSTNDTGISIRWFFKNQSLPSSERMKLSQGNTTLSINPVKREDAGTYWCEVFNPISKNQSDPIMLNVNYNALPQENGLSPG
The test can be described thus: BLI. In general terms: BLI is a label-free optical method that tracks binding on a fibre tip over time.

Test [3] addresses CEACAM1 (cell surface) (human). The test can be described thus: FACS, Raji-CEACAM1.
Test [4] concerns the target CEACAM1 (cell surface) (human). The test can be described thus: FACS, BxPC-3.
The target of test [5] is T1, CEACAM1-his. As to the kind of experiment: BLI.
Test [6] addresses T1, CEACAM1-his. As to the kind of experiment: BLI.
Test [7] concerns the target T1, CEACAM1-his. The test can be described thus: BLI.
For another test, the target named is T2, CEACAM6 (human, UniProt P40199).
T2 chain: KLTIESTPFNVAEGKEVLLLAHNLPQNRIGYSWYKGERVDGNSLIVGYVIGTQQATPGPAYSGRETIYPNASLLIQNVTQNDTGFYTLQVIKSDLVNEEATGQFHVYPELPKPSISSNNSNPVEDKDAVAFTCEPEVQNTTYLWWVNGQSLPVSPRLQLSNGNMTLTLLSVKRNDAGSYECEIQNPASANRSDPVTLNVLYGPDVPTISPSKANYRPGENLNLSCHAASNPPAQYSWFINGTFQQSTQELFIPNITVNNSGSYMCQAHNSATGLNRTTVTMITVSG
The test can be described thus: BLI.

Another test addresses T3, CEACAM3 (human, UniProt P40198).
T3 chain: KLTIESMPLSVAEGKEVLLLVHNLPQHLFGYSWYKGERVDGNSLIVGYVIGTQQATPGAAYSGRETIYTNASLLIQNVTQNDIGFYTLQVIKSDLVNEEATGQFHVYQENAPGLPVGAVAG
As to the kind of experiment: BLI.

The target in the next test is T4, CEACAM5 (human, UniProt P06731).
T4 chain: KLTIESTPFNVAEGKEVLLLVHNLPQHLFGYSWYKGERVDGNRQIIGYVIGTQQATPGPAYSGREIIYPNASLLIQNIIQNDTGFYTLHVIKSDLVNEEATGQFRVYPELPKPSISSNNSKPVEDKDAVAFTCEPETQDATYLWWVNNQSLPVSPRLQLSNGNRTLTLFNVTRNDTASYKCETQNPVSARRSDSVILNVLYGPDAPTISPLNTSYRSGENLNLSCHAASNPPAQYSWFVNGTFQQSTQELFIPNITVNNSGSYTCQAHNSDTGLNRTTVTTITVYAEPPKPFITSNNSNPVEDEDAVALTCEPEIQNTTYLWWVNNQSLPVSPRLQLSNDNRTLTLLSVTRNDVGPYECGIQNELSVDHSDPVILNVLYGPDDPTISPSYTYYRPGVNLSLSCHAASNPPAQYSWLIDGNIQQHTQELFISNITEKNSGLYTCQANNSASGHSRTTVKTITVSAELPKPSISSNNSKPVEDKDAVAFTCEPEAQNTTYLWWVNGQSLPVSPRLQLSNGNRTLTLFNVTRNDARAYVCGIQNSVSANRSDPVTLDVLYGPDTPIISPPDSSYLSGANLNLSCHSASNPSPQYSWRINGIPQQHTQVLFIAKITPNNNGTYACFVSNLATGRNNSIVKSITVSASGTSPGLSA
As to the kind of experiment: BLI.

Read-outs that look alike come from different tables or passages of the source.

CEACAM1 (cell surface) (human), sequence (chain, as listed by the source): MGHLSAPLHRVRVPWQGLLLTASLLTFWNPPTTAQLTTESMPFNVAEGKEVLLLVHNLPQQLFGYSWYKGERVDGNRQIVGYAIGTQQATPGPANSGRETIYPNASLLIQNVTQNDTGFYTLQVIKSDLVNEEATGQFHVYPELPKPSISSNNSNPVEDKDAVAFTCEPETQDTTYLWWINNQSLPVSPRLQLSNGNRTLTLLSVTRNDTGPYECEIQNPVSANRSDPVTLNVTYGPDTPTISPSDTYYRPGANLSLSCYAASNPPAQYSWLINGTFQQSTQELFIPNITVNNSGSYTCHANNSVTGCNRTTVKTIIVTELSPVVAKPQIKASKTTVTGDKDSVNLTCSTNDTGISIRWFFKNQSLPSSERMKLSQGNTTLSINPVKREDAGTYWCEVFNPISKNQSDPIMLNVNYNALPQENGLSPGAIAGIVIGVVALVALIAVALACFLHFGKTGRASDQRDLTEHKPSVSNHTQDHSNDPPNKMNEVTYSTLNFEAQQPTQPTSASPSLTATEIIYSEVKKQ

B1: h2C10.G4.H0aL4 (antibody, V domains shown)
VH: QVQLVQSGAEVKKPGASVKVSCKASGFAFTNYLIEWVRQAPGQGLEWMGVLNPGSGATNYNEKFKGRVTMTRDTSISTAYMELSRLRSDDTAVYYCARGIYGGYFAMDYWGQGTLVTVSS
VL: DIQMTQSPSSLSASVGDRVTITCRASQDITTYLNWYQQKPGGAPKLLIYYTSRLHSGVPSRFSGSGSGTDFTLTISSLQPEDIATYYCQQGNTLPRTFGGGTKLEIK
In general, EC50 refers to the concentration giving half of the maximal effect. A higher EC50 goes with weaker potency. As a reminder, the Kd is the free concentration of one partner at which half of the binding sites on the other are occupied at equilibrium, for simple one-to-one binding. Low readings indicate higher affinity, high ones lower affinity. With B1, the EC50 was determined as 0.0491 µg/mL in the test with CEACAM1 (cell surface) [1], 0.0862 µg/mL with CEACAM1 (cell surface) [3] and 0.031 µg/mL with CEACAM1 (cell surface) [4]. In addition, the Kd with CEACAM1-his [2] and in the test with CEACAM1-his [5] was 1.83 nM each time.

B2: h2C10.G4.H0aL2 (antibody, V domains shown)
VH: QVQLVQSGAEVKKPGASVKVSCKASGFAFTNYLIEWVRQAPGQGLEWMGVLNPGSGATNYNEKFKGRVTMTRDTSISTAYMELSRLRSDDTAVYYCARGIYGGYFAMDYWGQGTLVTVSS
VL: DIQMTQSTSSLSASVGDRVTITCRASQDITTYLNWYQQKPGGAPKLLIYYTSRLHSGVPSRFSGSGSGTDYTLTISSLQPEDIATYYCQQGNTLPRTFGGGTKLEIK
Take B2: the EC50 amounted to 0.0684 µg/mL with CEACAM1 (cell surface) [1], 0.0746 µg/mL in the test with CEACAM1 (cell surface) [3] and 0.0464 µg/mL with CEACAM1 (cell surface) [4]. Besides, the Kd in the test with CEACAM1-his [2] and with CEACAM1-his [5] was 0.85 nM each time.

B3: h4D10.G4.H4L2 (antibody, V domains shown)
VH: QVQLVQSGAEVKKPGASVKVSCKASGYTFSSYVIHWVRQAPGQGLEWMGYFNPYNNGTNYNENFKGRVTMTADTSTSTVYMELSSLRSEDTAVYYCARYYYASGSLYFDYWGQGTTVTVSS
VL: DIQMTQSPSTLSASVGDRVTITCSASSSVSYMHWYQQKPGKAPKPLIYEISKLASGVPSRFSGSGSGTEFTLTISSLQPDDAATYYCQQWNYPLITFGGGTKVEIK
Turning to B3, the 50% effective concentration (EC50) came out at 0.039 µg/mL with CEACAM1 (cell surface) [1], 0.0699 µg/mL with CEACAM1 (cell surface) [3] and 0.0263 µg/mL with CEACAM1 (cell surface) [4]. Moreover, the Kd with CEACAM1-his [2] came out at 1.7 nM; with CEACAM1-his [6], 2.65 nM; in the test with CEACAM1-his [5], 1.7 nM.

B4: h4D10.G4.H4(N56Q Y100F)L2 (antibody, V domains shown)
VH: QVQLVQSGAEVKKPGASVKVSCKASGYTFSSYVIHWVRQAPGQGLEWMGYFNPYNQGTNYNENFKGRVTMTADTSTSTVYMELSSLRSEDTAVYYCARYFYASGSLYFDYWGQGTTVTVSS
VL: DIQMTQSPSTLSASVGDRVTITCSASSSVSYMHWYQQKPGKAPKPLIYEISKLASGVPSRFSGSGSGTEFTLTISSLQPDDAATYYCQQWNYPLITFGGGTKVEIK
With B4, the results for the Kd with CEACAM1-his [2] and with CEACAM1-his [6] were 2.02 nM and 3.31 nM, respectively. This molecule displayed an EC50 in the test with CEACAM1 (cell surface) [4] of 0.0211 µg/mL.

B5: 2C10 (antibody, V domains shown)
VH: QVQLQQSGAELVRPGTSVKVSCKASGFAFTNYLIEWVKQRPGQGLEWIGVLNPGSGATNYNEKFKGKATLTADKSSSTAYMQLSSLTSDDSAVYFCARGIYGGYFAMDYWGQGTSVTVSS
VL: DIQMTQTTSSLSASLGDRVTISCRASQDITTYLNWYQQRPDGTVKLLIYYTSRLHSGVPSRFSGSGSGTEYSLTISNLEQEDIATYFCQQGNTLPRTFGGGTKLEIR
In turn, B5 had an equilibrium dissociation constant (Kd) with CEACAM1-his [7] of 0.955 nM. The binding result with CEACAM6 and with CEACAM3 was “no binding” each time.

B6: 4D10 (antibody, V domains shown)
VH: EVQLQQSGPELVKPGASVKMSCKASGYTFSSYVIHWVRQKPGQGLEWIGYFNPYNNGTNYNENFKGKATLTSGKSSSTAYMELSSLTSEDSAVYYCARYYYASGSLYFDYWGQGTTLTVSS
VL: EIVLTQSPAIATASLGQKVTITCSASSSVSYMHWYQQKSGTSPKPWIYEISKLASGVPTRFSGSGSGTSYSLTISSMEAEDAAIYYCQQWNYPLITFGAGTKLELK
B6: the binding result with CEACAM5, with CEACAM6 and with CEACAM3 was “no binding” each time.

B7: h9D12.G4.H0bL7 (antibody, V domains shown)
VH: QVQLVQSGAEVKKPGASVKVSCKASGFNIKDTYMHWVRQAPGQGLEWMGRIDLASGDSKYDPKFQGRVTMTRDTSTSTVYMELSSLRSEDTAVYYCARAHFGGGNWYFDVWGQGTTVTVSS
VL: DIQLTQSPSFLSASVGDRVTITCSASSSVSYMHWYQQKPGQAPKPWIYEISKLASGVPSRFSGSGSGTEYTLTISSMQSEDFAVYYCQQWNYPLTFGQGTKLEIK
Turning to B7, the EC50 with CEACAM1 (cell surface) [1] came to 0.0974 µg/mL; with CEACAM1 (cell surface) [4] it was 0.0723 µg/mL. The equilibrium dissociation constant (Kd) in the test with CEACAM1-his [2] and in the test with CEACAM1-his [5] was 3.68 nM throughout.

B8: 9D12 (antibody, V domains shown)
VH: EVQLQQSGAELVKPGASVKLSCTASGFNIKDTYMHWVKQRPEQGLEWIGRIDLASGDSKYDPKFQGKATITADTSSNTAYLQFSSLTSEDTAVYYCARAHFGGGNWYFDVWGAGTTVTVSS
VL: EIVLTQSPAITAASLGQKVTITCSASSSVSYMHWYQQKSGTSPKPWIYEISKLASGVPARFSGSGSGTSYSLTISSMEAEDAAIYYCQQWNYPLTFGAGTKLELK
In turn, B8 came in with a Kd with CEACAM1-his [7] of 2.9 nM. For the same molecule, in the test with CEACAM6, the binding result was “no binding”.

B9: 7D4 (antibody, V domains shown)
VH: EVQLQQSGAELVRPGASVKLSCTASGFNLKDTYMHWVKQRPEQGLEWIGRIDPSDGDTKYGPKFQDKTTITADTSSNTAYLQLSSLTSEDAAVYYCARAHFGGGGWYFDVWGAGTTVTVSS
VL: EIVLTQSPAITAASLGQKVTITCSASSSVGYMHWYQQKSGTSPKPWIYEISKLASGVPARFSGSGSGTSYSLTIRNMEAEDAAIYYCQQWNYPLTFGAGTKLELK
Molecule B9 came in with a Kd with CEACAM1-his [7] of 6.97 nM. Besides, in the test with CEACAM6, the binding result is “no binding”.
